This test concerns the target Pol II stalk (RPB4-RPB7), S. scrofa (S. scrofa). Briefly: cryo-EM structure; PEC-RNGTT: phosphorylated Pol II, DNA-RNA scaffold with 17 nt 5′-triphosphate RNA, DSIF, RNGTT, 100 μM GMPPNP, NELF added stepwise; purified and crosslinked by GraFix; NELF seen in an Up and a Down state. The conditions noted are these: both partners purified.

B1: RNA guanylyltransferase and 5′-phosphatase (RNGTT) (enzyme)
chain: not shown
notes: human RNGTT, full-length gene; TPase domain, linker, GTase domain with OB fold; Released from the IgG resin by on-column digestion; also called capping enzyme; CE; source: Expi293F, transfected, purified (IgG resin, on-column digestion, Mono Q); not shown: 4 × ProteinA, N-terminal, cleaved
Turning to B1, the binding result is listed as “binds”.

Source of the values: publication PMC11139899, “Structures of co-transcriptional RNA capping enzymes on paused transcription complex” (Nature Communications, 2024).
